Results from US20220002389A1.

B1: SW-1C10 (1C10 antibody produced in the cocoons of transgenic silkworms) (antibody, human IgG1, kappa, V domains shown)
VH: EVQLVESGGGVVQPGRSLRVSCVASGFMFSNYAMHWVRQTAGKGLEWVAIISNDGSDKYYADSVQGRFTVSRDNSQNTLFLQMSGLRPEDSGLYYCARDLDQTIPDLTAPAFEVWGQGTMVTVSS
VL: DIVMTQSPLSLAVTPGEPASISCRSSQSLLHSDGNNYLDWYLQKPGQSPQLLIYLTSNRASGVPDRFSGSGSGTDFTLKISRVEAEDVGVYFCMQSLQTWTFGQGTKVEIKR
modifications: N-glycans without core fucose (silkworm-produced)
B2: 293A-1C10 (1C10 antibody of 293A origin) (antibody, human IgG1, kappa, V domains shown)
VH: B1 VH
VL: B1 VL

Key:
[1] = molecular target: HIV-1 BaL strain envelope protein (gp120) on BaL-infected CEM.NKR-CCR5 (NKR24) cells (HIV-1 BaL strain); assay: flow cytometry on BaL-infected NKR24 cells; antibody at 0.16 µg/mL
[2] = molecular target: HIV-1 BaL strain envelope protein (gp120) on BaL-infected CEM.NKR-CCR5 (NKR24) cells (HIV-1 BaL strain); assay: flow cytometry on BaL-infected NKR24 cells; antibody at 20 µg/mL
[3] = molecular target: HIV-1 BaL strain envelope protein (gp120) on BaL-infected CEM.NKR-CCR5 (NKR24) cells (HIV-1 BaL strain); assay: flow cytometry on BaL-infected NKR24 cells; antibody at 0.8 µg/mL
[4] = molecular target: HIV-1 BaL strain envelope protein (gp120) on BaL-infected CEM.NKR-CCR5 (NKR24) cells (HIV-1 BaL strain); assay: flow cytometry on BaL-infected NKR24 cells; antibody at 0.032 µg/mL
[5] = molecular target: HIV-1 BaL strain envelope protein (gp120) on BaL-infected CEM.NKR-CCR5 (NKR24) cells (HIV-1 BaL strain); assay: cell-based or functional assay
[6] = molecular target: HIV-1 BaL strain envelope protein (gp120) on BaL-infected CEM.NKR-CCR5 (NKR24) cells (HIV-1 BaL strain); assay: flow cytometry on BaL-infected NKR24 cells; antibody at 100 µg/mL
[7] = molecular target: HIV-1 BaL strain envelope protein (gp120) on BaL-infected CEM.NKR-CCR5 (NKR24) cells (HIV-1 BaL strain); assay: flow cytometry on BaL-infected NKR24 cells; antibody at 4 µg/mL

Binder	MFI [1]	MFI [2]	MFI [3]	MFI [4]	IC50 (50% inhibitory concentration) of infection of TZM-bl cells by BaL virus, luciferase RLU; 'Dose at Y = 50' [5]	MFI [6]	MFI [7]
B1	1080 MFI	1640 MFI	1260 MFI	779 MFI	0.108 µg/mL	1900 MFI	1440 MFI
B2	1210 MFI	1780 MFI	1290 MFI	983 MFI	0.133 µg/mL	1780 MFI	1530 MFI
